pKd: −log10 of the molar value. Blank lines part the entries; values can stand above or below the substance they belong to.
Legend:
[1] = target: liposomes displaying both TGN38 YxxΦ peptide (m4) and CD4 dileucine peptide (m5); assay: SPR; conditions: 10% PtdIns4,5P2 + 0.5% TGN38 + 0.5% CD4 liposomes; five AP2 concentrations ranging from 50 nM to 1 μM
[2] = target: fluorescein-labeled TGN38 YxxΦ peptide (ASDYQRL); assay: fluorescence polarisation; stopped-flow polarized fluorescence, pre-steady-state kinetics; AP2 preincubated for 30 min with 200 μM heparin; 1 μM fluorescein peptide
[3] = target: fluorescein-labeled TGN38 YxxΦ peptide (ASDYQRL); assay: fluorescence polarisation; equilibrium anisotropy titration with 500 μM polymeric heparin (~50 subunits); 20 nM fluorescein peptide; 21°C; 10 mM Tris pH 8.7, 250 mM NaCl
[4] = target: fluorescein-labeled TGN38 YxxΦ peptide (ASDYQRL); assay: fluorescence polarisation; stopped-flow polarized fluorescence, pre-steady-state kinetics, without heparin; 1 μM fluorescein peptide, protein at pseudo-first order excess; single exponential fits, kapp = koff + kon.C
[5] = target: lipid-linked TGN38 sorting motif peptide (…) displayed in liposomes; assay: SPR; conditions: for pKd: 10% PtdIns4,5P2 + 1% TGN38 liposomes, five AP2 concentrations ranging from 50 nM to 1 μM
[6] = target: lipid-linked phosphorylated CD4 dileucine sorting signal peptide (…(SP)…) displayed in liposomes; assay: SPR; conditions: for pKd: 10% PtdIns4,5P2 + 1% CD4P liposomes, five AP2 concentrations ranging from 50 nM to 1 μM
[7] = target: liposomes containing 10% PtdIns4,5P2 (no cargo peptide); assay: SPR; conditions: 10% PtdIns4,5P2 liposomes; five AP2 concentrations ranging from 50 nM to 1 μM
[8] = target: lipid-linked TGN38 sorting motif peptide (…) displayed in liposomes; assay: SPR; peptido-liposomes with 10% PtdIns4,5P2 and lipid-linked peptide captured on an L1 sensor surface (BIAcore 3000, T100); AP2 cores injected; 10 mM Tris pH 8.7, 250 mM NaCl, 1 mM DTT; corrected for binding to PC/PE or PtdIns4,5P2 liposomes; apparent
[9] = target: lipid-linked phosphorylated CD4 dileucine sorting signal peptide (…(SP)…) displayed in liposomes; assay: as above
Target sequence in this assay (peptide, as listed by the source): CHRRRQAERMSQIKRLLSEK

[10] = target: lipid-linked TGN38 sorting motif peptide (…) displayed in liposomes; assay: not stated; unpublished data (S.H.); binding of AP2 cores to YxxΦ/PtdIns4,5P2-containing liposomes

Sequence of AP2 core (recombinant; α trunk, β2 trunk, myc-tagged μ2, σ2) (from UniProt P63010;P84092;P62743) μ2PIP- (μ2 5K>E and μ2 KRR>E combined; individual residues not printed) (P62743 whole entry, looked up, change not shown): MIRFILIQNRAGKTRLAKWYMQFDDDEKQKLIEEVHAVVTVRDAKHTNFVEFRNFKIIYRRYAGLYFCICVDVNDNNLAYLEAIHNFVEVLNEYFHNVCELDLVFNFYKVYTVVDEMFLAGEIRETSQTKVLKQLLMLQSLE
Sequence of AP2 core (recombinant; α trunk, β2 trunk, myc-tagged μ2, σ2) (from UniProt P63010;P84092;P62743) μ2PIP- (μ2 5K>E and μ2 KRR>E combined; individual residues not printed) (P84092 whole entry, looked up, change not shown): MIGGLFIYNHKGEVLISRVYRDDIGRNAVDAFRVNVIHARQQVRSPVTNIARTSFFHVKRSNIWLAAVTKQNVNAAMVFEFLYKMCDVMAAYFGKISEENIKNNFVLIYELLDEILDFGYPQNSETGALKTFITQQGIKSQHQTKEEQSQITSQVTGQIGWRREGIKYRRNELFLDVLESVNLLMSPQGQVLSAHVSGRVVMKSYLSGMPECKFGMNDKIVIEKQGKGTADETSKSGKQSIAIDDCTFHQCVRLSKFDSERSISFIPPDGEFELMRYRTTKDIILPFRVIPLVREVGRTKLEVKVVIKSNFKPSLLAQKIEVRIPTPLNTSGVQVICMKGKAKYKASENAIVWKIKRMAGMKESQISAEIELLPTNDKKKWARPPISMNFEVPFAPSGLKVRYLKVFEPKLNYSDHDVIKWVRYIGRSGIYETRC
Sequence of AP2 core (recombinant; α trunk, β2 trunk, myc-tagged μ2, σ2) (from UniProt P63010;P84092;P62743) μ2PIP- (μ2 5K>E and μ2 KRR>E combined; individual residues not printed) (P63010 whole entry, looked up, change not shown): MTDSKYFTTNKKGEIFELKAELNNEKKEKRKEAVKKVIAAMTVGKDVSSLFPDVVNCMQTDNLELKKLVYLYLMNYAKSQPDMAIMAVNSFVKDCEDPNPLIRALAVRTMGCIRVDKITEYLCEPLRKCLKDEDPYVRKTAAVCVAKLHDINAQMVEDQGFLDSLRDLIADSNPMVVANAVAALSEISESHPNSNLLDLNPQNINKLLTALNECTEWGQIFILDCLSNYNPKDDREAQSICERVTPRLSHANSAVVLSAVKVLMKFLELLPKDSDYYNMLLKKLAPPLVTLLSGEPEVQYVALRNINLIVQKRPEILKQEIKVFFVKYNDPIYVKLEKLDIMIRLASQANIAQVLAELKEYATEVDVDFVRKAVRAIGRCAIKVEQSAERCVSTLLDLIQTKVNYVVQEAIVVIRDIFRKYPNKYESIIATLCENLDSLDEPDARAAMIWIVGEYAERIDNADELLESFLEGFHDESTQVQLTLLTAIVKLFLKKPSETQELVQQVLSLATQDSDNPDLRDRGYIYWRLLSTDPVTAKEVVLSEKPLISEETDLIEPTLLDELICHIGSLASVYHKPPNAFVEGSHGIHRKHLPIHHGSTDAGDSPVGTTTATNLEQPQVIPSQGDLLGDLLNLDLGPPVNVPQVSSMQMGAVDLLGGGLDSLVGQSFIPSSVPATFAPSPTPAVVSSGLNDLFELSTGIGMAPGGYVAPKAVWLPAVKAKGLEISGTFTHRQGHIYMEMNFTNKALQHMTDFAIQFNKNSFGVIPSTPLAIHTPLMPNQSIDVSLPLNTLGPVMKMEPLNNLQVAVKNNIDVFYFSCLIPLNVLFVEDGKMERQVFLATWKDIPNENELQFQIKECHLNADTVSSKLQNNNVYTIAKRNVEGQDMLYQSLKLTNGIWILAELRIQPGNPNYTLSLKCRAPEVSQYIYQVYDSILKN
Sequence of AP2 core (recombinant; α trunk, β2 trunk, myc-tagged μ2, σ2) (from UniProt P63010;P84092;P62743) αPIP- (substitutions in the PtdIns4,5P2-binding site of α; not printed) (P62743 whole entry, looked up, stated change not applied): as the sequence (P62743 whole entry, looked up, change not shown) above
Sequence of AP2 core (recombinant; α trunk, β2 trunk, myc-tagged μ2, σ2) (from UniProt P63010;P84092;P62743) αPIP- (substitutions in the PtdIns4,5P2-binding site of α; not printed) (P84092 whole entry, looked up, stated change not applied): as the sequence (P84092 whole entry, looked up, change not shown) above
Sequence of AP2 core (recombinant; α trunk, β2 trunk, myc-tagged μ2, σ2) (from UniProt P63010;P84092;P62743) αPIP- (substitutions in the PtdIns4,5P2-binding site of α; not printed) (P63010 whole entry, looked up, stated change not applied): as the sequence (P63010 whole entry, looked up, change not shown) above
Sequence of μ2^PIP-Core (AP2 core with the μ2 mutations 5K>E and KRR>E combined) (P62743 whole entry, looked up, change not shown): as the sequence (P62743 whole entry, looked up, change not shown) above
Sequence of μ2^PIP-Core (AP2 core with the μ2 mutations 5K>E and KRR>E combined) (P84092 whole entry, looked up, change not shown): as the sequence (P84092 whole entry, looked up, change not shown) above
Sequence of μ2^PIP-Core (AP2 core with the μ2 mutations 5K>E and KRR>E combined) (P63010 whole entry, looked up, change not shown): as the sequence (P63010 whole entry, looked up, change not shown) above
Sequence of AP2 core (recombinant; α trunk, β2 trunk, myc-tagged μ2, σ2) (from UniProt P63010;P84092;P62743) β2:K5E; β2:K12E; β2:K26E; β2:K27E; β2:K29E; β2:K36E (P62743 whole entry, looked up, stated change not applied): as the sequence (P62743 whole entry, looked up, change not shown) above
Sequence of AP2 core (recombinant; α trunk, β2 trunk, myc-tagged μ2, σ2) (from UniProt P63010;P84092;P62743) β2:K5E; β2:K12E; β2:K26E; β2:K27E; β2:K29E; β2:K36E (P84092 whole entry, looked up, stated change not applied): as the sequence (P84092 whole entry, looked up, change not shown) above
Sequence of AP2 core (recombinant; α trunk, β2 trunk, myc-tagged μ2, σ2) (from UniProt P63010;P84092;P62743) β2:K5E; β2:K12E; β2:K26E; β2:K27E; β2:K29E; β2:K36E (P63010 whole entry, looked up, stated change not applied): as the sequence (P63010 whole entry, looked up, change not shown) above

Substance: AP2 core (recombinant; α trunk, β2 trunk, myc-tagged μ2, σ2) (from UniProt P63010;P84092;P62743) β2:K5E; β2:K12E; β2:K26E; β2:K27E; β2:K29E; β2:K36E
pKd [1]: < 4.52

Substance: isolated C-terminal domain of μ2 (C-μ2) (from UniProt P84092 1-435) (domain or fragment)
pKd [4]: 6.30
relaxation time at 15 μM C-μ2 [4]: 0.0073 s

Substance: AP2 core (recombinant; α trunk, β2 trunk, myc-tagged μ2, σ2) (from UniProt P63010;P84092;P62743) αPIP- (substitutions in the PtdIns4,5P2-binding site of α; not printed)
response ([5]; 200 nM AP2 core, PtdIns4,5P2/TGN38 liposomes, corrected for non-specific binding to PC/PE liposomes, baseline about 80 RU, parent: est. 1800, read off a plot): 330 RU
pKd [5]: < 4.52
pKd [1]: < 4.52
response ([6]; 200 nM AP2 core, PtdIns4,5P2/CD4P liposomes, corrected for non-specific binding to PC/PE liposomes, baseline about 40 RU, parent: est. 1400, read off a plot): 180 RU

Substance: μ2Thr156Glu AP2 core (from UniProt P63010 1-592; P84092 1-236; P84092 237-435; P62743 1-142) (complex)
fold less binding than phosphorylated AP2 core [10]: 20 fold
fold weaker binding than wild-type core [10]: 4 fold

Substance: AP2 core (recombinant; α trunk, β2 trunk, myc-tagged μ2, σ2) (from UniProt P63010;P84092;P62743) μ2 5K>E (five lysines of the second basic region of C-μ2 to glutamate; residues not printed)
pKd [5]: 6.28
pKd [6]: 6.02
pKd [7]: 4.96

The remaining lines, values ahead:

pKd [2]: 5.46
koff [2]: 2 s⁻¹
kon [2]: 1e+06 M⁻¹ s⁻¹
relaxation time at 15 μM AP2 with heparin [2]: 0.059 s
relaxation time with heparin [2]: 0.056 s
pKd [3]: 5.47
pKd [4]: 2.40
relaxation time at 30 μM AP2 without heparin [4]: 62.5 s
Substance: AP2 core (recombinant; α trunk, β2 trunk, myc-tagged μ2, σ2) (from UniProt P63010 1-592; P84092 1-236; P84092 237-435; P62743 1-142) (complex)

pKd [5]: 6.48
pKd [6]: 6.07
pKd [7]: 5.12
Substance: AP2 core (recombinant; α trunk, β2 trunk, myc-tagged μ2, σ2) (from UniProt P63010;P84092;P62743) μ2 KRR>E (three basic residues of the third basic region of C-μ2 to glutamate; residues not printed)

pKd [5]: 5.21
pKd [1]: 6.55
pKd [6]: 5.60
pKd [7]: 4.52
Substance: AP2 core (recombinant; α trunk, β2 trunk, myc-tagged μ2, σ2) (from UniProt P63010;P84092;P62743) μ2PIP- (μ2 5K>E and μ2 KRR>E combined; individual residues not printed)

fold inhibition of binding to PtdIns4,5P2/YxxΦ liposomes against the wild-type core [8]: 20 fold
fold reduction of binding to PtdIns4,5P2/[ED]xxxL[LI] liposomes against the wild-type core [9]: 3 fold
Substance: μ2^PIP-Core (AP2 core with the μ2 mutations 5K>E and KRR>E combined) (from UniProt P63010 1-592; P84092 1-236; P84092 237-435; P62743 1-142) (complex)
